Measurements: paper doi:10.1101/2025.11.14.688546, “Nuclear-import receptors remodel the dilute phase to suppress phase transitions of RNA-binding proteins with prion-like domains” (bioRxiv, 2025)
Read-outs that look alike come from different tables or passages of the source. Blank lines part the entries; values can stand above or below the molecule they belong to.

Experiments:
Kapβ2 (Homo sapiens) [1] = target: Kapβ2 (Homo sapiens) (UniProt Q92973); test: fluorescence anisotropy; settings: cited from earlier work
Kapβ2 (Homo sapiens) [2] = target: Kapβ2 (Homo sapiens) (UniProt Q92973); settings: cited from earlier work
hnRNPA1 = hnRNPA1 (UniProt P09651)
[3] = target: the molecule itself; test: microfluidic resistive pulse sensing (MRPS); increasing concentrations of the RNA-binding protein alone; MBP cleaved in situ by TEV (0.04 mg/ml), 1.5–2 h at room temperature; C-400 and C-2000 cartridges (70–2000 nm); FUS: 20 mM HEPES pH 7.4, 207 mM NaCl, 1.3 mM DTT, 0.7 mM EDTA, 3.3 % glycerol; hnRNPA1 and hnRNPA2: same with 66.7 mM NaCl

Kapβ2 (Homo sapiens), sequence (Q92973 whole entry): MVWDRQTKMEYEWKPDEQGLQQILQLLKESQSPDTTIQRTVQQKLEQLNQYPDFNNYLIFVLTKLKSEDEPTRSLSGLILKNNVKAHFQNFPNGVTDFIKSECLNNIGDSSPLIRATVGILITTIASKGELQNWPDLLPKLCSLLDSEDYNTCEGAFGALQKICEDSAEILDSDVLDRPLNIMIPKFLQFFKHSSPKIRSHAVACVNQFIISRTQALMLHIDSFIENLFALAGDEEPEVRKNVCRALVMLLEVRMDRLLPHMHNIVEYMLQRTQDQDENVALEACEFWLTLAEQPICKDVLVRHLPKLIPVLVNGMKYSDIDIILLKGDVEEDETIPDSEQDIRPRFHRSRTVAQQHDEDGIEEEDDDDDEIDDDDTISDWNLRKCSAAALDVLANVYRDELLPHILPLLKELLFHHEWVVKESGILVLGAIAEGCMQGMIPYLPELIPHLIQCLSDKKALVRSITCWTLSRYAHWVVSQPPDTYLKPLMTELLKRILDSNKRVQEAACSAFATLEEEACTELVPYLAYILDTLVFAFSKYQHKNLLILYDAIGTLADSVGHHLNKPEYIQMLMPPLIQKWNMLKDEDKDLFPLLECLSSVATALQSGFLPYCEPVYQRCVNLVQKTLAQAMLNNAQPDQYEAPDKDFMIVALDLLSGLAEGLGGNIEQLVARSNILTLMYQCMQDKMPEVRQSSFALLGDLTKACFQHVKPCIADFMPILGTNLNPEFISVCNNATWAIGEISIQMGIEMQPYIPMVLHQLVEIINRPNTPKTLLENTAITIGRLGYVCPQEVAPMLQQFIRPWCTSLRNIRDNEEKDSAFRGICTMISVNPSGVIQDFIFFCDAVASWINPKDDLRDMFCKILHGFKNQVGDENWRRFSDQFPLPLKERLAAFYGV
hnRNPA1, sequence (P09651 whole entry): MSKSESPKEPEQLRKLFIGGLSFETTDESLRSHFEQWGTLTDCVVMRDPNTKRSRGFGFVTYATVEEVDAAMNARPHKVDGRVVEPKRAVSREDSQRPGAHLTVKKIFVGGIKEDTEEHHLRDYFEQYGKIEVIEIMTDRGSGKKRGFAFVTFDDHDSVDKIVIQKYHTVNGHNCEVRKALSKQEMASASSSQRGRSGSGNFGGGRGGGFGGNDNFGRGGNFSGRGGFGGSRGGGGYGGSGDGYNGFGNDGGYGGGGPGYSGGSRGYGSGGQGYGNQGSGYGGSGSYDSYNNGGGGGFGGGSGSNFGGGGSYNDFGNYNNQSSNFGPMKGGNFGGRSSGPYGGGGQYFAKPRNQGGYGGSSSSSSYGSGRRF

Molecule: FUS (from UniProt P35637)
Kd (Kapβ2 (Homo sapiens) [1]): 43 nM | Kd (Kapβ2 (Homo sapiens) [2]): 50 nM

saturation concentration (csat) of hnRNPA1 for condensate formation, brightfield microscopy; ~4 μM without Kapβ2, measured with 2 μM Kapβ2 (hnRNPA1): 6 µM
Molecule: Karyopherin-β2 (from UniProt Q92973 1-898) (natural protein)

B1: FUS^P525L (natural protein, UniProt P35637 1-526, looked up)
chain: MASNDYTQQATQSYGAYPTQPGQGYSQQSSQPYGQQSYSGYSQSTDTSGYGQSSYSSYGQSQNTGYGTQSTPQGYGSTGGYGSSQSSQSSYGQQSSYPGYGQQPAPSSTSGSYGSSSQSSSYGQPQSGSYSQQPSYGGQQQSYGQQQSYNPPQGYGQQNQYNSSSGGGGGGGGGGNYGQDQSSMSSGGGSGGGYGNQDQSGGGGSGGYGQQDRGGRGRGGSGGGGGGGGGGYNRSSGGYEPRGRGGGRGGRGGMGGSDRGGFNKFGGPRDQGSRHDSEQDNSDNNTIFVQGLGENVTIESVADYFKQIGIIKTNKKTGQPMINLYTDRETGKLKGEATVSFDDPPSAKAAIDWFDGKEFSGNPIKVSFATRRADFNRGGGNGRGGRGRGGPMGRGGYGGGGSGGGGRGGFPSGGGGGGGQQRAGDWKCPNPTCENMNFSWRNECNQCKAPKPDGPGGGPGGSHMGGNYGDDRRGGRGGYDRGGYRGRGGDRGGFRGGRGGGDRGGFGPGKMDSRGEHRQDRRERLY
notes: Production of the variant is not described on its own; also called ALS-linked FUS variant P525L; not shown: MBP, N-terminal, cleaved
binding result [3]: binds
